Reference: article PMC6667623, “Regulation of Glutarate Catabolism by GntR Family Regulator CsiR and LysR Family Regulator GcdR in Pseudomonas putida KT2440” (mBio, 2019)
Values belong to the molecule of their own block, whether it stands above or below them.

Columns and labels:
[1] = molecular target: His6-tagged GcdR of P. putida KT2440 (Pseudomonas putida KT2440) (UniProt Q88RH3); experiment: SEC; Superdex 200 10/300 GL gel filtration of purified GcdR against molecular mass standards, compared with SDS-PAGE; buffer A (20 mM sodium phosphate, 500 mM sodium chloride, pH 7.4), 0.5 ml min^-1
[2] = molecular target: T1, CsiR (Pseudomonas putida KT2440) (UniProt Q88IU1); experiment: EMSA; details: 10 mM Tris-HCl pH 7.4, 50 mM KCl, 0.5 mM EDTA, 10% glycerol, 1 mM DTT; 30 C, 30 min; 6% native PAGE at 4 C
T1 sequence: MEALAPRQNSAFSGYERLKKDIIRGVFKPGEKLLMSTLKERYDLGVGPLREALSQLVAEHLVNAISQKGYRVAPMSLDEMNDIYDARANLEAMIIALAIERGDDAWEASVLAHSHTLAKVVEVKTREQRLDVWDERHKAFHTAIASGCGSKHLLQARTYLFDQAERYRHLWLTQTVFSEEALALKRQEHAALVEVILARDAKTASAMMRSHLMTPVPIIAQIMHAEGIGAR

[3] = molecular target: T2, GcdR (Pseudomonas putida KT2440) (UniProt Q88RH3); experiment: EMSA; details: 10 mM Tris-HCl pH 7.4, 50 mM KCl, 0.5 mM EDTA, 10% glycerol, 1 mM DTT; 30 C, 30 min; 6% native PAGE at 4 C
T2 sequence: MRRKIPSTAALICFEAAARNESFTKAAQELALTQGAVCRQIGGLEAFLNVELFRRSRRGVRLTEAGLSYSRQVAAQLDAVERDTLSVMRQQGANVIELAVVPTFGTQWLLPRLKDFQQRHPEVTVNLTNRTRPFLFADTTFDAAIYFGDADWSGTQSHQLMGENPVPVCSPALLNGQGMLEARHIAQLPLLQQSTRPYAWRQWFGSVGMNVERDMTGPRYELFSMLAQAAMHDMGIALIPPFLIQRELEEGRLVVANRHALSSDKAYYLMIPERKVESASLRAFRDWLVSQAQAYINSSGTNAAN

[4] = molecular target: the molecule itself; experiment: SEC; Superdex 200 10/300 GL gel filtration of purified CsiR against molecular mass standards, compared with SDS-PAGE; buffer C (50 mM sodium phosphate, 150 mM sodium chloride, pH 7.2), 0.5 ml min^-1

stoichiometry N [1]: 4
Molecule: His6-tagged GcdR of P. putida KT2440 (from UniProt Q88RH3 1-305) (natural protein)

Molecule: GATCCTGTTCCTCAAAACGTTTTGCCGATCATACCGAAACCCTCTGCTGACGAAAAACAATGGACAAACACGAGTAGTGTCGTTGAAAAATAAAAATGTAGACATTTTCAGTTAGTGGCGATATTTTTACCTCGCCCGCACTGATCCAGGTCATGACCGGACGGCGCCATCTACTTTTTTAGCCAGGACACTGCC (double strand) [F1 (csiR-csiD intergenic region)]
binding [2]: binds

Molecule: GCCGCCTCGAAGCAAATCAGGGCGGCGGTACTGGGGATCTTACGGCGCATGTACGTCAACCTCACTTGTAAGGCTGTCAATAAGGCGTTTTGCCGATTTACGGAGTGACAAAATATCACTAATCGGTGCGCAATCCTCGTTTGTCGCCGCAGCCGATCAGGCCTAGGCTCAAAGGCACAAGAAACTGACCCCTATTTCGAGGATTCGCTCATGGTCGGTAAAGCAAGTTTCAACTGGATCGACCCGTTGCTGCTGGATCA (double strand)
binding [3]: binds

B1: His6-tagged CsiR protein of P. putida KT2440 (natural protein, Pseudomonas putida KT2440, UniProt Q88IU1 1-231, looked up)
chain: MEALAPRQNSAFSGYERLKKDIIRGVFKPGEKLLMSTLKERYDLGVGPLREALSQLVAEHLVNAISQKGYRVAPMSLDEMNDIYDARANLEAMIIALAIERGDDAWEASVLAHSHTLAKVVEVKTREQRLDVWDERHKAFHTAIASGCGSKHLLQARTYLFDQAERYRHLWLTQTVFSEEALALKRQEHAALVEVILARDAKTASAMMRSHLMTPVPIIAQIMHAEGIGAR
notes: CsiR, GntR family transcriptional regulator of Pseudomonas putida KT2440, encoded by csiR (pp2908); gene amplified from genomic DNA with primers csiR-F/csiR-R and cloned BamHI/HindIII into pETDuet-1; Cloning into the BamHI/HindIII sites of pETDuet-1 would usually give an N-terminal His tag (surmise); No tag cleavage is described; also called GntR family regulator CsiR; source: E. coli BL21(DE3) …
stoichiometry N [4]: 2
